From publication PMC6512903 come the findings set out here.

Targets include FcRn (human) (UniProt P55899); FcγRIIb/c (human) (UniProt P31994); FcγRIIIb (human) (UniProt O75015); FcγRIa (human) (UniProt P12314); FcγRIIIa (F) (human) (UniProt P08637); FcγRIIIa (V) (human) (UniProt P08637).
Common to all, as to assay: SPR

Sequence of UniProt P55899 (P55899 24-365, chain 1 of 2): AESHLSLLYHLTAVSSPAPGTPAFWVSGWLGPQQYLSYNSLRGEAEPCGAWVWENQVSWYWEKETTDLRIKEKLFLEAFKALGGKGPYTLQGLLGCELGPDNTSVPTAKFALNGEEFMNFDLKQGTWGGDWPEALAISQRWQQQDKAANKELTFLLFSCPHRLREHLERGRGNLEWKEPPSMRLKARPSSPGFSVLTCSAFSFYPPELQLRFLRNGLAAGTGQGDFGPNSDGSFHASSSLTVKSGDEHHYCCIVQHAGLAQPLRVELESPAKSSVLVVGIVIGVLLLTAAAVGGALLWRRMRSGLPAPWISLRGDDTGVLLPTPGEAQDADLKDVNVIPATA
Sequence of UniProt P55899 (P61769 21-119, chain 2 of 2, further chain): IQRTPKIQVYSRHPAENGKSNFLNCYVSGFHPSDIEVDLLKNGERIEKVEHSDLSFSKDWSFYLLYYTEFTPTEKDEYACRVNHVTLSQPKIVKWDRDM
Sequence of UniProt P12314 (P12314 16-374): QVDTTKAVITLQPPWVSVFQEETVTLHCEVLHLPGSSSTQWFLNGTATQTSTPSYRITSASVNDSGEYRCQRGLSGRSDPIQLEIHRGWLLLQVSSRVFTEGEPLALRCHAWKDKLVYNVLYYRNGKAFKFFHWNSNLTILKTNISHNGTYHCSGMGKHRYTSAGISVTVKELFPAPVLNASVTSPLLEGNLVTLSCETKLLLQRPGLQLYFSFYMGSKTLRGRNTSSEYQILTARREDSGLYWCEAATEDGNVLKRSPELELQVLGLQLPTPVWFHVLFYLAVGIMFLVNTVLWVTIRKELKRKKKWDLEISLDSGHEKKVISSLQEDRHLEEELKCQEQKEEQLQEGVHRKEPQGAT
Sequence of UniProt P31994 (P31994 43-310): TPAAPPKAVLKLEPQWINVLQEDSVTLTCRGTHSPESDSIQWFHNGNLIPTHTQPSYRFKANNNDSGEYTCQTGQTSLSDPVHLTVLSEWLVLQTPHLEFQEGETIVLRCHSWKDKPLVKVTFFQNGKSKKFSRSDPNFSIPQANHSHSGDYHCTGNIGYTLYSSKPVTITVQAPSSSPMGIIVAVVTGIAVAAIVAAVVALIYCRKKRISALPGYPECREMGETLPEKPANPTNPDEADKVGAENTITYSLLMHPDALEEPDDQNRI
Sequence of UniProt O75015 (O75015 17-200): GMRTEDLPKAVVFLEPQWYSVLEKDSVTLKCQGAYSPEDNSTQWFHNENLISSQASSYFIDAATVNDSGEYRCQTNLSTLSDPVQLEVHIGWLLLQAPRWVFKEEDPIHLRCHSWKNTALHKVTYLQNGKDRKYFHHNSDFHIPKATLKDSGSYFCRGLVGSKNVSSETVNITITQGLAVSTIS

As for “CN-rituximab (MabThera, sourced in China but manufactured in Europe) (antibody)”, the relative binding activity (KD ratio to a reference), mean of batches is 131% with FcRn (human) and 99% with FcγRIIb/c (human).
Consider “EU-rituximab (MabThera, sourced and manufactured in Europe) (antibody)”, for which the relative binding activity (KD ratio to a reference), mean of batches with FcγRIIIb (human) was determined as 90%; with FcRn (human), 121%; with FcγRIa (human) it was 118%.
As to HLX01 (antibody), the relative binding activity (KD ratio to a reference), mean of batches stood at 113% in the assay with FcRn (human); 98% with FcγRIIIa (F) (human); 103% with FcγRIa (human); 90% in the assay with FcγRIIb/c (human); 95% with FcγRIIIa (V) (human).
